Measurements as given in paper PMC8558179, “The C-terminal peptide of CCL21 drastically augments CCL21 activity through the dendritic cell lymph node homing receptor CCR7 by interaction with the receptor N-terminus” (Cellular and Molecular Life Sciences: CMLS, 2021).
Numbering of substitutions follows the chain as printed.

Assays:
CCR7 = settings: allosteric antagonist, cytosolic site; cited from earlier work
Excerpt: In the absence of peptide, CCL19 and CCL21 contact CCR7 in different manners. The interaction of CCL21 depends on residues in the top of TM-3, -4 and -5 that are not important for CCL19 interaction with CCR7. The binding of these two chemokines induce different structural changes in CCR7 to disrupt old and create new hydrogen bonds. CCL21 binding to CCR7 is believed to involve movements within the majority of helical domains (TM2, -3, -4, -5, -6, and -7), whereas the changes induced by CCL19 are restricted to regions of TM3, -5, and -6 [37]. The conformational changes in CCR7 ind ...

[1] = biological target: T1, CCR7^−O (CCR7 T37/38/42A) (Homo sapiens, UniProt P32248, T37A/T38A/T42A); test: Gαi signaling, BRET cAMP assay, CCR7 lacking N-terminal O-glycosylation sites; type: cell-based; settings: no peptide, CCR7^−O vs WT CCR7
T1 construct: CCR7 contains a 24-residue long signal peptide cleaved of from the mature protein; expressed in transfected cells; host or cells: CHO cells, transient transfection
T1 sequence (P32248 25-378 T37A/T38A/T42A): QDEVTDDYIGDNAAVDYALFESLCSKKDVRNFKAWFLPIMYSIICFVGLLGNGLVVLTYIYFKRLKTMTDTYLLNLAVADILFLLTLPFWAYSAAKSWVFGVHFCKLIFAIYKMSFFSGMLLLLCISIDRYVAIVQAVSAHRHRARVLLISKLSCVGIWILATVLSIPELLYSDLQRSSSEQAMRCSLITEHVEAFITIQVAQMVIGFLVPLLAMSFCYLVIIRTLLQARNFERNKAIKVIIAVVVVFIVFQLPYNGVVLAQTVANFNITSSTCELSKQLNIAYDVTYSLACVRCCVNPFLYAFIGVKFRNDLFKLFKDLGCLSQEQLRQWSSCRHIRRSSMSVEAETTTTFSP
Procedure: O-glycosylation deficient CCR7 was generated from WT through Quick change PCR using the following primers: […]
(§1) For cAMP assays, adherent CHO cells were transfected using lipofectamine while suspension cells were transfected using the FectoPro method. Cells were seeded in a 6-well plate, either 500,000 (adherent cells) or 200,000 (suspension cells) cells/well. The next day the cells were transiently transfected with vectors encoding the human CCR7 and CAMYEL sensor (cAMP sensor using YFP-Epac-RLuc) in a 1:5 ratio using lipofectamine (6 µl/well) or FectoPro (4 µl/well). Lipofectamine transfections were terminated by changing to 2 ml fresh cultivation medium after 5 h, while Fectopro transfection was terminated after 3 h by adding 2.5 ml fresh cultivation medium and 2 µl FectoPro Boost reagent per well. The cells were incubated under standard cultivation conditions overnight. For β-arrestin recruitment assays, cells were transfected with CCR7 and vectors expressing a Renilla luciferase arrestin3 fusion protein and membrane-SH3-citrine protein. The cells were then resuspended in PBS w/glucose and seeded in 96-well white iso plates (~ 25,000 cells/well). Coelenterazine (bioluminescence substrate) was added to a final conc. of 5 µM. After 10 min, cells were stimulated with varying ligand concentrations for a total of 40 min. Forskolin was added to each well 5 min after ligand addition to reach a final conc. of 5 µM. The plates were kept in the dark at all times. Emission signal from Rluc and eYFP was measured using the Envision machine at 530 and 480 nm and the BRET signal determined as the ratio between (eYFP/Rluc).

human CCR7 [2] = biological target: T2, human CCR7 (Homo sapiens, UniProt P32248); test: β-arrestin recruitment, BRET-based assay at CCR7; type: cell-based; settings: no peptide, n = 4
T2 construct: CCR7 contains a 24-residue long signal peptide cleaved of from the mature protein; expressed in transfected cells; host or cells: CHO cells (CHO-K1, CHO suspension WT, GAG-deficient and 5xKO GalNAc-T knockout lines), transient transfection
T2 sequence (P32248 25-378): T1 sequence (P32248 25-378 T37A/T38A/T42A) with A13T, A14T, A18T
Procedure: as §1

human CCR7 [3] = biological target: T2, human CCR7; test: Gαi signaling, BRET-based cAMP (CAMYEL) assay at CCR7 in CHO cells; type: cell-based; settings: for boosting of CCL21-induced Gαi signaling: CCL21 + 10 µM peptide, BRET cAMP, n = 3–8
Procedure: (§2) Human DCs were cultured in X-vivo 15 medium with 2% human AB serum and glutamine. CHO-K1 pgsB-618 ATCC® CRL2241™ [24] and CHO-K1 cells were grown in RPMI with 10% FBS and Penicillin/Streptomycin. HS^−/− (CHO EXTL 2/3 −/−), CS^−/− (CSGALNACT 1/2^−/− CHSY1^−/−), 5xKO (GalNAc-T1, 2, 4, 7 and 10 −/−) and WT CHO suspension cells were grown in suspension in 1:1 of EX-Cell CD CHO fusion media and Balanced CD CHO growth A medium supplemented with 2% glutamine and Penicillin/Streptomycin. Cells were kept in a humidified incubator at 37 °C, 5% CO2.
as §1

[4] = test system: human moDCs naturally expressing CCR7; test: 3D chemotaxis, time-lapse recording of human moDCs in Collagen I (chemotactic index); type: cell-based; settings: human moDCs; for boosting of CCL21-induced DC chemotaxis: 10 nM CCL21, peptide 10 µM (0.1–10 µM in the dose series)
Procedure: Buffy coats were obtained from Rigshospitalet Copenhagen, as anonymous material, with written informed consent from the donors. The local ethics committee at Faculty of Health and Medical Sciences at the University of Copenhagen (Research Ethics Committee for Sund and Science, University of Copenhagen) found the project exempt from approval. DCs were prepared from human peripheral blood mononuclear cells (PBMC) isolated from buffy coats by centrifugation on a Lymphoprep gradient as previously described. Briefly, monocytes were isolated by plastic adherence of PBMC. Adhered monocytes were subsequently cultured and differentiated into immature DCs by incubation with IL-4 (250 U/ml) and GM-CSF (1000 U/ml) for 6 days, followed by activation into mature DCs by incubation with IL-6 (1000 U/ml), IL-1β (1000 U/ml), TNF-α (1000 U/ml), and PGE2 (1 µg/ml) for an additional 2 days in the same medium.
as §2
Chemotaxis assays were conducted as previously described. Briefly, mature human moDCs were left to acclimatize in medium for 30 min at room temperature (RT) upon defrosting, before assay start. DCs were seeded in Bovine Collagen I mixture prepared by mixing 10 µl Na2HCO3 (7.5%), 20 µl MEM (10×), 150 µl PureCol and 90 µl DCs dissolved in X-vivo 15 medium (2 × 10^6 cells/ml). After incubation for 45 min in a humidified incubator at 37 °C (5% CO2), the source and sink reservoirs were filled according to the manufacturer’s instructions and chemotaxis was tracked in a time-lapse microscope with a humidified temperature controlled stage incubator for 12 h at a 2 min interval. Cell migration (approximately 20–40 cells per viewing field) was tracked using a commercial tracking program (Autozell) and subsequently analyzed to get a population-based chemotactic index (CI) value (MATLAB). CI is a measure of net translocation distance to the source relative to total distance traveled and was thus calculated as the ratio of the distance traveled in the direction of the gradient over the total distance traveled and therefore is a conservative measure of the directedness of cell migration.

| Compound | boosting of CCL21-induced Gαi signaling (human CCR7 [3]; CHO cells) | boosting of CCL21-induced DC chemotaxis [4] | also measured |
| --- | --- | --- | --- |
| Cc1ccc(C(NC2=NS(=O)(=O)N=C2Nc2ccc(C)c(C(=O)N(C)C)c2O)C(C)(C)C)o1 (centres unmarked) [Cmp2105] |  |  | competition with CCL19 binding to CCR7 (CCR7): outcompetes CCL19 binding to CCR7 |
| CCL19: endogenous chemokine, CCR7 ligand, from R&D Systems |  |  | chemokine activity on its own at CCR7^−O [1]: without affecting basal CCR7 activation via CCL19 and CCL21; pEC50, β-arrestin recruitment, chemokine alone (human CCR7 [2]): 7.11; chemokine signaling in O-glycosylation-deficient 5xKO cells (human CCR7 [3]; CHO 5xKO vs WT, CCL21 alone, CCL19 in absence or presence of C21TP): only slightly impaired; pEC50, Gαi signaling, chemokine alone (human CCR7 [3]; no peptide, CHO cells, forskolin 5 µM, n = 4): 7.94; chemotaxis towards chemokine alone ([4]; 10 nM chemokine, no peptide): strong migratory signal |
| TP81-111: naturally occurring peptide generated upon plasmin cleavage of CCL21 (RKDRGASKTGKKGKGSKGCKRTERSQTPKGP; UniProt O00585 104-134, looked up, fragment) | boosted even more | at least to the same extent as TP71-111 |  |

Now from value to compound, other results behind:

| boosting of CCL21-induced Gαi signaling (human CCR7 [3]; CHO cells) | Compound | boosting of CCL21-induced DC chemotaxis [4] | also measured |
| --- | --- | --- | --- |
| reduced signaling via cAMP | TP81-97: C-terminally truncated version of TP81-111 (RKDRGASKTGKKGKGSK; UniProt O00585 104-120, looked up, fragment) | blunted chemotaxis boosting ability |  |
| conserved boosting effects | TP81-102: C-terminally truncated version of TP81-111 (RKDRGASKTGKKGKGSKGCKRT; UniProt O00585 104-125, looked up, fragment) | conserved boosting effects |  |
| retaining boosting ability | TP91-111: C21TP reduced N-terminally by 20 aa (KKGKGSKGCKRTERSQTPKGP; UniProt O00585 114-134, looked up, fragment) | retaining boosting ability |  |
